For orientation: Kd means the free concentration of one partner at which half of the binding sites on the other are occupied at equilibrium, for simple one-to-one binding.

This test has as its target SARS-CoV-2 XBB.1.5 RBD (BLI) (SARS-CoV-2, Omicron XBB.1.5, strain). The test is described as follows: BLI. Conditions: both partners purified.

B1: AZD3152 (antibody, V domains shown)
VH: EVQLVESGGGLVQPGRSLRLSCAASGFPFDDYAIHWVRLAPGKGLEWVSSISWDSGSIGYADSVKGRFTISRDNAKNSLYLQMNSLRAEDTALYYCAKGAFPGYSSGWYYGLEVWGQGTTVTVSS
VL: QSVVTQPPSASGSLGQSVTISCTGTSSDVGGYNYVSWYQQHPGKAPKLMIFEVSKRPSGVPDRFSGSKSGNTASLTVSGLQAEDEADYYCSSYAGNKGVFGGGTKLTVL
B1: the Kd was 2 nM.

Values taken from article PMC11952088 (Science Advances, 2025).
